B1: HESX1 (parent)
chain: SKYENYFSASERLSLKRELSWYRG
B2: TRIM63 (parent)
chain: QEKKLSFIEALIQQYQEQLDKSTK

Variants of: B1
Test: protein stability index of a GFP-peptide fusion (GPS, HEK-293T) (PSI 1-6); higher = more stable
Settings: c terminus: a fixed tail appended
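Further: lentivirally expressed fusions sorted by FACS into six bins by GFP to DsRed ratio, PSI derived from sequencing read proportions per bin multiplied by bin number.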

| Variant | protein stability index |
| --- | --- |
| S10N | 2.13 |
| S10T | 2.77 |
| S10H | 2.38 |
| S10C | 2.34 |
| S10Y | 1.67 |
| S10K | 2.72 |
| S10A | 2.07 |
| S10M | 1.86 |
| S10P | 1.95 |
| S10R | 2.3 |
| S10E | 3.04 |
| S10Q | 2.28 |
| S10F | 1.07 |
| S10G | 1.56 |
| S10W | 2.31 |
| S10D | 2.19 |
| A9T | 2.18 |
| A9N | 2.86 |
| A9H | 1.59 |
| A9C | 2.45 |
| A9F | 1.51 |
| A9Y | 2.08 |
| A9R | 1.99 |
| A9L | 1.58 |
| A9Q | 2.01 |

| Variant | protein stability index |
| --- | --- |
| A9V | 1.41 |
| A9W | 1.52 |
| A9I | 1.44 |
| A9K | 2.01 |
| A9P | 1.4 |
| A9E | 3.38 |
| A9D | 2.73 |
| A9S | 1.82 |
| A9M | 2.15 |
| L19K | 1.81 |
| L19C | 2.01 |
| L19P | 2 |
| L19H | 2.66 |
| L19R | 2.18 |
| L19W | 1.41 |
| L19S | 3.25 |
| L19F | 2.68 |
| L19V | 1.79 |
| L19T | 2.31 |
| L19I | 2.52 |
| L19E | 2.08 |
| L19A | 2.62 |
| L19G | 1.87 |
| L19M | 1.95 |
| S8V | 1.56 |

| Variant | protein stability index |
| --- | --- |
| S8R | 1.44 |
| S8N | 1.68 |
| S8F | 2.35 |
| S8Q | 2.26 |
| S8M | 1.61 |
| S8H | 2.01 |
| S8D | 3.25 |
| S8A | 1.94 |
| S8E | 1.67 |
| S8L | 1.55 |
| S8K | 1.62 |
| S8I | 1.94 |
| S8C | 2.03 |
| R12Q | 1.95 |
| R12S | 2 |
| R12F | 1.55 |
| R12N | 1.79 |
| R12D | 2.32 |
| R12C | 2.4 |
| R12Y | 2.01 |
| R12K | 1.93 |
| R12E | 2.77 |
| R12I | 2.77 |
| R12T | 2.88 |
| R12V | 1.55 |

| Variant | protein stability index |
| --- | --- |
| R12L | 2.03 |
| R12M | 1.06 |
| R12G | 1.77 |
| R12H | 2.65 |
| E18I | 1.75 |
| E18K | 1.99 |
| E18C | 1.43 |
| E18Q | 1.52 |
| E18H | 1.77 |
| E18N | 2.06 |
| E18G | 1.87 |
| E18D | 1.82 |
| E18S | 1.38 |
| E18R | 2.5 |
| E18P | 2.07 |
| K16L | 2.21 |
| K16P | 3.04 |
| K16Y | 1.94 |
| K16R | 1.42 |
| K16A | 2.32 |
| K16H | 1.78 |
| K16I | 1.8 |
| K16T | 1.95 |
| K16V | 2.16 |
| K16S | 1.9 |

| Variant | protein stability index |
| --- | --- |
| K16F | 1.37 |
| K16N | 2.17 |
| S14Q | 2.36 |
| S14N | 2.25 |
| S14Y | 1.92 |
| S14D | 3.59 |
| S14H | 1.99 |
| S14E | 2.14 |
| S14W | 2.21 |
| S14G | 1.33 |
| S14I | 1.27 |
| S14C | 2.07 |
| S14M | 1.74 |
| S14P | 2.96 |
| S14L | 1.02 |
| S14R | 2.03 |
| S14F | 1.73 |
| R17W | 1.21 |
| R17C | 1.61 |
| R17L | 1.38 |
| R17K | 2.27 |
| R17M | 2.72 |
| R17V | 3.72 |
| R17Q | 2.29 |
| R17A | 2.04 |

| Variant | protein stability index |
| --- | --- |
| R17D | 2.21 |
| R17E | 1.91 |
| R17N | 1.76 |
| R17S | 1.56 |
| R17T | 1.9 |
| R17G | 1.78 |
| R17Y | 2.66 |
| R17H | 2.1 |
| Y22R | 1.9 |
| Y22S | 2.22 |
| Y22H | 2.56 |
| Y22K | 2.46 |
| Y22T | 1.9 |
| Y22Q | 1.7 |
| Y22P | 2.29 |
| Y22A | 1.82 |
| Y22C | 2.27 |
| Y22W | 2.4 |
| Y22D | 3.06 |
| R23F | 2.16 |
| R23P | 2.18 |
| R23W | 1.83 |
| R23A | 1.85 |
| R23D | 2.1 |
| R23C | 1.53 |

| Variant | protein stability index |
| --- | --- |
| R23Y | 1.12 |
| R23Q | 2.51 |
| R23K | 2.14 |
| R23H | 2.3 |
| R23S | 2.1 |
| R23N | 1.94 |
| L15K | 2.47 |
| L15W | 2.95 |
| L15D | 2.65 |
| L15M | 1.72 |
| L15P | 2.57 |
| L15A | 2.72 |
| L15Q | 2.95 |
| L15C | 1.94 |
| L15I | 1.86 |
| L15N | 2.33 |
| L15S | 2.41 |
| L15V | 2.06 |
| L15F | 1.61 |
| L15H | 2.07 |
| L15Y | 2.13 |
| L15T | 1.17 |
| L15E | 2.22 |
| L15R | 2.24 |
| S20K | 1.58 |

| Variant | protein stability index |
| --- | --- |
| S20L | 2.8 |
| S20P | 1.31 |
| S20I | 2.8 |
| S20M | 1.14 |
| S20F | 1.66 |
| S20R | 2.14 |
| S20W | 2.91 |
| S20T | 3.72 |
| S20V | 1.24 |
| S20Q | 1.94 |
| S20Y | 2.75 |
| F7I | 1.98 |
| F7W | 1.3 |
| F7H | 2.72 |
| F7T | 3.02 |
| F7L | 2.64 |
| F7M | 2.12 |
| F7V | 3.05 |
| F7S | 2.83 |
| F7Y | 2.63 |
| F7K | 1.77 |
| E11Y | 1.75 |
| E11K | 2.04 |
| E11L | 2.11 |
| E11V | 2.37 |

| Variant | protein stability index |
| --- | --- |
| E11G | 1.55 |
| E11H | 2.76 |
| E11I | 1.71 |
| E11A | 1.57 |
| E11N | 2 |
| E11D | 2.39 |
| E11Q | 2.49 |
| E11T | 1.67 |
| L13S | 2.07 |
| L13D | 3.44 |
| L13Y | 1.93 |
| L13N | 2.31 |
| L13G | 1.93 |
| L13K | 1.9 |
| L13M | 1.63 |
| L13E | 2.3 |
| L13V | 2.72 |
| L13F | 1.65 |
| L13P | 2.35 |
| W21I | 3.04 |
| W21G | 1.48 |
| W21V | 2.2 |
| W21T | 2.46 |
| W21M | 2.31 |
| W21D | 3.19 |

| Variant | protein stability index |
| --- | --- |
| W21H | 1.73 |
| W21A | 4.19 |
| W21Q | 2.63 |
| W21P | 2.39 |
| W21Y | 2.4 |
| W21N | 2.27 |
| W21F | 2.29 |
| W21C | 2.2 |
| W21K | 1.75 |
| W21S | 2.65 |
| G24N | 1.66 |
| G24V | 2.01 |
| G24K | 2.74 |
| G24E | 2.46 |
| G24Y | 1.45 |
| G24I | 1.81 |
| G24H | 2.11 |
| G24L | 1.35 |
| G24P | 2.46 |
| G24D | 2.12 |
| G24T | 2.07 |
| G24A | 1.81 |

Variants of: B2
Test: as above
Settings: c terminus: a fixed tail appended

| Variant | protein stability index |
| --- | --- |
| E2K | 1.81 |
| E2I | 1.92 |
| E2T | 2 |
| E2V | 1.74 |
| E2A | 1.63 |
| E2L | 2.73 |
| E2P | 2.93 |
| E2W | 2 |
| E2H | 2.58 |
| E2R | 2.93 |
| E2Y | 2.75 |
| E2F | 2.44 |
| E2M | 1.92 |
| E2S | 1.87 |
| E2G | 2.93 |
| E2C | 1.52 |
| E2D | 2.74 |
| E2N | 1.9 |
| E2Q | 2.25 |
| Q1K | 2.34 |
| Q1T | 2.23 |
| Q1R | 2.48 |

| Variant | protein stability index |
| --- | --- |
| Q1H | 2.28 |
| Q1D | 2.21 |
| Q1N | 2.49 |
| Q1C | 2.37 |
| Q1S | 2.4 |
| Q1G | 2.31 |
| Q1W | 2.76 |
| Q1V | 2.39 |
| Q1I | 2.03 |
| Q1P | 2.39 |
| Q1Y | 2.02 |
| Q1M | 1.99 |
| Q1E | 2.74 |
| Q1L | 1.49 |
| Q1F | 1.91 |
| K3H | 2.32 |
| K3Y | 2.88 |
| K3C | 3.24 |
| K3Q | 2.85 |
| K3D | 3.27 |
| K3G | 3.03 |
| K3V | 2.32 |

| Variant | protein stability index |
| --- | --- |
| K3N | 3.11 |
| K3W | 1.57 |
| K3S | 3.6 |
| K3A | 2.67 |
| K3F | 2.43 |
| K3R | 2.84 |
| K3I | 2.01 |
| K3E | 3.04 |
| K3T | 3.04 |
| K3P | 2.67 |
| K3L | 2.15 |
| L5H | 2.9 |
| L5N | 4.19 |
| L5F | 2.91 |
| L5A | 4.08 |
| L5G | 3.91 |
| L5E | 3.51 |
| L5I | 2.76 |
| L5M | 2.38 |
| L5C | 2.69 |
| L5K | 3.11 |
| L5P | 3.58 |

| Variant | protein stability index |
| --- | --- |
| L5Q | 3.34 |
| L5D | 3.93 |
| K4T | 2.49 |
| K4N | 3.32 |
| K4W | 1.85 |
| K4Q | 3.4 |
| K4A | 1.87 |
| K4F | 2.18 |
| K4S | 2.83 |
| K4D | 3.48 |
| K4R | 2.77 |
| K4P | 3.07 |
| K4E | 2.73 |
| K4I | 1.96 |
| K4H | 3.22 |
| K4C | 1.9 |
| K4V | 2.02 |
| K4Y | 2.53 |
| K4L | 2 |
| K4M | 1.68 |
| K4G | 3.03 |

— the supplement of paper PMC10567573
